From patent US20230310602A1 (published 2023) come the findings set out here.

Test [1] has as its target T1, HCELL (exofucosylated CD44) on FTVII-treated human MSCs (FuchAdMSCs, adipose-derived); FuchBMMSCs, bone … (human, UniProt P16070 21-742, fucose installed in α(1,3)-linkage onto sialyllactosaminyl glycans of CD44 by fucosyltransferase VII with GDP-fucose (creates sLe^x)). Description: cell-based or functional assay.
Test [2] concerns the target T1, HCELL (exofucosylated CD44) on …. Description: cell-based or functional assay. This is another data set of the same source.

T1 sequence (P16070 21-742): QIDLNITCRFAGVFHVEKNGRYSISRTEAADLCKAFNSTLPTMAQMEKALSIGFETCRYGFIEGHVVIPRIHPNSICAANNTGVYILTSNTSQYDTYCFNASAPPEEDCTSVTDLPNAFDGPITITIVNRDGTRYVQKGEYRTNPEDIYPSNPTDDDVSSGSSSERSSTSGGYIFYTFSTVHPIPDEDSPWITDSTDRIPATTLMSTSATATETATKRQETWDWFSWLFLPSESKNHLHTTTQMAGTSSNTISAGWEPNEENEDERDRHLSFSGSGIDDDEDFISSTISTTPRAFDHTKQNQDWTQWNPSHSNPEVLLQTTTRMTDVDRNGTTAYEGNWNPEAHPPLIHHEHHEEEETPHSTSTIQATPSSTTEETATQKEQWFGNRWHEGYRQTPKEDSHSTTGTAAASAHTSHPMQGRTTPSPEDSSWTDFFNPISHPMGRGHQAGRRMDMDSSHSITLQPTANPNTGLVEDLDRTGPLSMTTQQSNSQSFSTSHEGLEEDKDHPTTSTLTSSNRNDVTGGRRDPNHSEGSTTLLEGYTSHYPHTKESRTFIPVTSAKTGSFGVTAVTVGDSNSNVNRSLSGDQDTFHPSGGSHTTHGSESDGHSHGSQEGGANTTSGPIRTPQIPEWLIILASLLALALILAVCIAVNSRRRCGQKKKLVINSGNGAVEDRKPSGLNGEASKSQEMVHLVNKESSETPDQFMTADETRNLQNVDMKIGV

B1: Recombinant mouse E-selectin-human Fc chimera (mE-Ig) (Fc fusion, UniProt Q00690 22-557, looked up, not shown: a dimerising Fc or GST)
chain: WYYNASSELMTYDEASAYCQRDYTHLVAIQNKEEINYLNSNLKHSPSYYWIGIRKVNNVWIWVGTGKPLTEEAQNWAPGEPNNKQRNEDCVEIYIQRTKDSGMWNDERCNKKKLALCYTASCTNASCSGHGECIETINSYTCKCHPGFLGPNCEQAVTCKPQEHPDYGSLNCSHPFGPFSYNSSCSFGCKRGYLPSSMETTVRCTSSGEWSAPAPACHVVECEALTHPAHGIRKCSSNPGSYPWNTTCTFDCVEGYRRVGAQNLQCTSSGIWDNETPSCKAVTCDAIPQPQNGFVSCSHSTAGELAFKSSCNFTCEQSFTLQGPAQVECSAQGQWTPQIPVCKAVQCEALSAPQQGNMKCLPSASGPFQNGSSCEFSCEEGFELKGSRRLQCGPRGEWDSKKPTCSAVKCDDVPRPQNGVMECAHATTGEFTYKSSCAFQCNEGFSLHGSAQLECTSQGKWTQEVPSCQVVQCPSLDVPGKMNMSCSGTAVFGTVCEFTCPDDWTLNGSAVLTCGATGRWSGMPPTCEAPVSPTRP
With B1, in test [1], the “IDO in supernatant, ratio FuchAdMSCs/UhAdMSCs, mE-IG (1 µg/ml)” value came to 6.75 ratio; the “IDO in supernatant, ratio FuchAdMSCs/UhAdMSCs, mE-IG (5 µg/ml)” value was determined as 7.72 ratio; the “IDO in supernatant, ratio FuchBMMSCs/UhBMMSCs, mE-IG (1 µg/ml)” value came to 4.71 ratio; the “IDO in supernatant, ratio FuchBMMSCs/UhBMMSCs, mE-IG (5 µg/ml)” value was 4.74 ratio. Further, in test [1], the “IL-10 in supernatant, ratio FuchAdMSCs/UhAdMSCs, mE-IG (1 µg/ml)” value came out at 12.7 ratio; the “IL-10 in supernatant, ratio FuchAdMSCs/UhAdMSCs, mE-IG (5 µg/ml)” value is 16 ratio; the “IL-10 in supernatant, ratio FuchBMMSCs/UhBMMSCs, mE-IG (1 µg/ml)” value came out at 3.87 ratio; the “IL-10 in supernatant, ratio FuchBMMSCs/UhBMMSCs, mE-IG (5 µg/ml)” value is 4.85 ratio. In test [1], the “NO2^-/NO3^- in supernatant, ratio FuchAdMSCs/UhAdMSCs, mE-IG (1 µg/ml)” value stood at 5.12 ratio; the “NO2^-/NO3^- in supernatant, ratio FuchAdMSCs/UhAdMSCs, mE-IG (5 µg/ml)” value is 5.9 ratio; the “NO2^-/NO3^- in supernatant, ratio FuchBMMSCs/UhBMMSCs, mE-IG (1 µg/ml)” value was found to be 3.31 ratio; the “NO2^-/NO3^- in supernatant, ratio FuchBMMSCs/UhBMMSCs, mE-IG (5 µg/ml)” value was determined as 5.14 ratio. In test [1], the “TGFβ in supernatant, ratio FuchAdMSCs/UhAdMSCs, mE-IG (1 µg/ml)” value worked out at 12.2 ratio; the “TGFβ in supernatant, ratio FuchAdMSCs/UhAdMSCs, mE-IG (5 µg/ml)” value is 12.4 ratio; the “TGFβ in supernatant, ratio FuchBMMSCs/UhBMMSCs, mE-IG (1 µg/ml)” value worked out at 8.11 ratio; the “TGFβ in supernatant, ratio FuchBMMSCs/UhBMMSCs, mE-IG (5 µg/ml)” value came out at 8.5 ratio. Besides, the “IL-10 production of adipose-derived hAdMSCs, ratio of FuchMSCs/UhMSCs for E-selectin exposure” value in test [2] stood at 10 fold.
